Data published in patent publication US20170240629A1 (Hoffmann-La Roche, published 2017).
Substitutions are numbered along the chain they refer to. Where two headings read alike, the source gives them in different places.

B1: huH34-2 (antibody, V domains shown)
VH: QVQLVQSGAEVKKPGASVKVSCKASGYTFTGYYMHWVRQAPGQGLEWIGYISSYNAFTTYNQKFRGRATFTVDTSISTAYMELSRLRSDDTAVYYCVRSDYYGTSLYWGQGTLVTVSS
VL: EIVLTQSPATLSLSPGERATLSCRASSSVSYMHWSQQKPGQAPRLLIYSTSNLASGIPARFSGSGSGTDFTLTISSLEPEDFAVYYCHQWSNYYTFGQGTKLEIK
notes: Humanized antibody expressed in HEK cells; also called huH34-2 bivalent; humanized version of H34
B2: huH34-2 Fab (Fab, V domains shown)
VH: B1 VH
VL: B1 VL
notes: also called huH34-2 Fab-fragment
B3: huH34-3 (antibody, V domains shown)
VH: B1 VH with N55S
VL: B1 VL
notes: VH = 11 and VL = 16 read by analogy with huH34-2
B4: antibody 0032 (bispecific antibody, V domains shown)
VH 1: EVQLVESGGGLVQPGGSLRLSCAASGYDFTHYGMNWVRQAPGKGLEWVGWINTYTGEPTYAADFKRRFTFSLDTSKSTAYLQMNSLRAEDTAVYYCAKYPYYYGTSHWYFDVWGQGTLVTVSS
VL 1: DIQLTQSPSSLSASVGDRVTITCSASQDISNYLNWYQQKPGKAPKVLIYFTSSLHSGVPSRFSGSGSGTDFTLTISSLQPEDFATYYCQQYSTVPWTFGQGTKVEIK
VH 2: B1 VH
VL 2: B1 VL
notes: CrossMab; only variable domains are tied to it; also called anti-IL-1beta/VEGF antibody
B5: huH34-1 (antibody, V domains shown)
VH: B1 VH with I48M, N55S, A56G, N61A, R65Q, A68V, F70M, V72R, V97A
VL: B1 VL
notes: VH = 01 and VL = 16 read by analogy with huH34-2 (VH 06, VL 16); Humanized

How the values were obtained:
human IL-1beta [1] = target: T1, human IL-1beta (human, UniProt P01584 117-269); test: cell-based or functional assay
human IL-1beta [2] = target: T1, human IL-1beta; test: cell-based or functional assay; remark: listed apart in the source
human IL-1beta [3] = target: T1, human IL-1beta; test: SPR (BIAcore); antibody captured by anti-Fc, IL-1beta injected
Method: (§1) All experiments were performed at 25° C. using HBS-P (10 mM His, 140 mM NaCl, 0.05% Tween 20 pH 7.4) as running and dilution buffer. Anti-human or anti-mouse Fc antibodies were immobilized on a Series S CM5 Sensor Chip (GE Healthcare) using standard amine coupling chemistry. […] The dissociation phase was monitored for 600 sec by washing with running buffer. […] The surface was regenerated by injecting 3 M MgCl2 (for anti-human Fc antibody) or 10 mM Glycine pH 1.5 (for anti-mouse Fc antibody) for 60 sec at a flow rate of 5 μl/min. Bulk refractive index differences were corrected by subtracting the response obtained from a mock surface. Blank injections were subtracted (double referencing). The derived curves were fitted to a 1:1 Langmuir binding model using the BIAevaluation software.

cynomolgus IL-1beta = cynomolgus IL-1beta (cynomolgus, UniProt P79182 117-268); test: as above
Method: as §1

human IL-1beta [4] = target: T1, human IL-1beta; test: cell-based or functional assay; remark: listed apart in the source
human IL-1beta [5] = target: T1, human IL-1beta; test: cell-based or functional assay; remark: listed apart in the source
human IL-1beta [6] = target: T1, human IL-1beta; test: SPR (BIAcore T200); antibody captured by anti-human Fc, human IL-1beta injected (Example 52); parameters: t 1/2: unit not given here
human IL-1beta [7] = target: T1, human IL-1beta; test: SPR (BIAcore); Fab captured by anti-human Fab, IL-1beta injected (Example 55)
Method: All experiments were performed at 25° C. using HBS-P (10 mM His, 140 mM NaCl, 0.05% Tween 20 pH 7.4) as running and dilution buffer. Anti-human Fc or anti-human Fab antibodies were immobilized on a Series S CM5 Sensor Chip (GE Healthcare) using standard amine coupling chemistry. […] The dissociation phase was monitored for 600 sec by washing with running buffer. The surface was regenerated by injecting 3 M MgCl2 (for anti-human Fc antibody) or 10 mM Glycine pH 1.5 (for anti-mouse Fc antibody) for 60 sec at a flow rate of 5 μl/min. Bulk refractive index differences were corrected by subtracting the response obtained from a mock surface. Blank injections were subtracted (double referencing). The derived curves were fitted to a 1:1 Langmuir binding model using the BIAevaluation software.

human IL-1beta [8] = target: T1, human IL-1beta; test: cell-based or functional assay; remark: listed apart in the source

IC50, inhibition of ICAM-1 expression upon IL-1beta stimulation of A549 cells (human IL-1beta [1]) [nM] | EC50, reduction of IL-6 expression upon IL-1beta stimulation of A549 cells (human IL-1beta [2]) [nM] | Kd (human IL-1beta [3]) [nM] | koff (human IL-1beta [3]) [s⁻¹] | kon (human IL-1beta [3]) [M⁻¹ s⁻¹] | Kd (cynomolgus IL-1beta) [nM] | koff (cynomolgus IL-1beta) [s⁻¹] | kon (cynomolgus IL-1beta) [M⁻¹ s⁻¹] | IC50, inhibition of ICAM-1 expression upon IL-1beta stimulation of HUVEC cells (human IL-1beta [4]) [nM] | IC50, inhibition of proliferation of D10 cells (human IL-1beta [5]) [nM] | Kd (human IL-1beta [6]) [nM] | koff (human IL-1beta [6]) [s⁻¹] | kon (human IL-1beta [6]) [M⁻¹ s⁻¹] | t 1/2 (human IL-1beta [6]) | Kd (human IL-1beta [7]) [nM] | koff (human IL-1beta [7]) [s⁻¹] | kon (human IL-1beta [7]) [M⁻¹ s⁻¹] | EC50, reduction of IL-6 expression upon IL-1beta stimulation of A549 cells (human IL-1beta [8]) [µg/mL] | Binder
0.23 | 0.11 | 0.06 | 0.00011 | 1.93e+06 | 0.05 | 0.000118 | 2.2e+06 | 0.3 | 0.83 | 0.05 | 0.000115 | 2.43e+06 | 101 | – | – | – | – | B1
– | – | – | – | – | – | – | – | – | – | – | – | – | – | 0.06 | 0.000111 | 1.81e+06 | – | B2
2.23 | 1.09 | 0.15 | 0.000302 | 1.97e+06 | 0.22 | 0.000491 | 2.21e+06 | – | – | – | – | – | – | – | – | – | – | B3
– | – | – | – | – | – | – | – | – | – | 0.12 | 0.000305 | 2.49e+06 | 38 | – | – | – | 0.0387 | B4
> 7 | 5.52 | 1.02 | 0.00151 | 1.49e+06 | 1.31 | 0.00212 | 1.61e+06 | – | – | – | – | – | – | – | – | – | – | B5
